Here are results for one molecule from patent US20040209310A1 (published 2004).

The target in this assay is T1, myc-tagged Mindin (pcDNA-His/myc-Mindin) (human, UniProt Q9BUD6 27-331).
T1 construct: mature; not shown: His/myc tag of vector pcDNA4-His/myc A
T1 sequence (looked up): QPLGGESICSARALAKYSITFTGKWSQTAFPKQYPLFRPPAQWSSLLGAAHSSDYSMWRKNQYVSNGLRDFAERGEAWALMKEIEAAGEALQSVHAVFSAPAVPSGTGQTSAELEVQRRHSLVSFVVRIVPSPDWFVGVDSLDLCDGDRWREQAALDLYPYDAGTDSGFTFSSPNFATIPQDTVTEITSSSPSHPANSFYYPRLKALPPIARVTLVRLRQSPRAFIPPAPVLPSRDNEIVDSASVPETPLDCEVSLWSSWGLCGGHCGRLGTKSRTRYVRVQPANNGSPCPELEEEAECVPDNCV
The experiment in a line: pulldown of myc-tagged Mindin with immobilized GST-CAPPD. On the procedure: Affinity chromatography on immobilized GST- or Ig-fusion proteins. These studies were performed essentially as described (Ichtchenko et al., 1995, Cell 81:435-443; Hata et al., Nature 366:347-351). Brain membrane extract was precleared by incubation (2 h at 4° C.) with glutathione agarose and incubated overnight at 4° C. with immobilized GST-CAPPD on glutathione agarose beads preequilibrated with buffer B. Beads were washed with buffer B and serially eluted with 2 ml of buffer B containing 0.3 M NaCl, 0.5 M NaCl, 1.0 M NaCl, or 1.0 M NaCl, 10 mM EGTA, and 5 mM EDTA (instead of 2 mM CaCl2). Eluted proteins were analyzed by SDS-PAGE and Coomassie blue staining. Bound proteins were identified by liquid chromatography/mass spectroscopy of tryptic fragments. For pulldown assays, the medium from COS cells transfected with pcDNA4-His/myc-F spondin or pcDNA-His/myc-Mindin (collected 48-72 h post transfection) was adjusted to (final concentrations) 10 mM HEPES-NaOH pH 7.4, 1 mM EGTA, 1% Triton X-100, proteinase inhibitors were added, and the supernatant was precleared with immobilized GST orIg-C. The treated medium was then incubated overnight at 4° C. with GST or GST-CAPPD immobilized on glutathione agarose or with various Ig-APP fusion proteins immobilized on protein-A Sepharose. […]

B1: GST-CAPPD fusion protein (pGEX-CAPPD, APP695 residues 286-557) (other, human, UniProt P05067-4 286-557, looked up)
chain: VVRVPTTAASTPDAVDKYLETPGDENEHAHFQKAKERLEAKHRERMSQVMREWEEAERQAKNLPKADKKAVIQHFQEKVESLEQEAANERQQLVETHMARVEAMLNDRRRLALENYITALQAVPPRPRHVFNMLKKYVRAEQKDRQHTLKHFEHVRMVDPKKAAQIRSQVMTHLRVIYERMNQSLSLLYNVPAVAEEIQDEVDELLQKEQNYSDDVLANMISEPRISYGNDALMPSLTETKTTVELLPVNGEFSLDDLQPWHSFGADSVPAN
notes: range 286-557; Expressed in bacteria and immobilized on glutathione agarose/Sepharose; also called CAPPD-GST fusion protein; central APP domain; not shown: glutathione S-transferase of vector pGEX-KG
Consider B1, for which the binding result is on record as “no binding”.
